Data taken from paper PMC6039492.

How the values were obtained:
[1] = target: GABAB receptor (heterodimer of GABAB1 and GABAB2), untagged and SNAP-tagged subunits in three combinations (rat) (UniProt Q9Z0U4); assay: two-photon scanning number and brightness (sN&B) fluctuation microscopy; live cultured rat hippocampal neurons, GABAB1 and/or GABAB2 SNAP-tagged and labelled with Alexa488, corrected for the theoretical number of fluorophores per heterodimer; across expression levels
[2] = target: mGlu2 mutated to be locked in the inactive conformation (HA-ST-mGlu2-515NGlyc-L698C-L729C-F756D), cross-linked with CuP (rat) (UniProt P31421); assay: two-photon scanning number and brightness (sN&B) fluctuation microscopy; live cultured rat hippocampal neurons, SNAP-tag labelled with Alexa488, incubated with 150 μM CuP for the last 10 min of labelling, imaged in the absence of ligand; 90-600 subunits/Veff; apparent stoichiometry (lower with CuP)

GABAB receptor (heterodimer of GABAB1 and GABAB2), untagged and SNAP-tagged subunits in three combinations, sequence (Q9Z0U4 20-960): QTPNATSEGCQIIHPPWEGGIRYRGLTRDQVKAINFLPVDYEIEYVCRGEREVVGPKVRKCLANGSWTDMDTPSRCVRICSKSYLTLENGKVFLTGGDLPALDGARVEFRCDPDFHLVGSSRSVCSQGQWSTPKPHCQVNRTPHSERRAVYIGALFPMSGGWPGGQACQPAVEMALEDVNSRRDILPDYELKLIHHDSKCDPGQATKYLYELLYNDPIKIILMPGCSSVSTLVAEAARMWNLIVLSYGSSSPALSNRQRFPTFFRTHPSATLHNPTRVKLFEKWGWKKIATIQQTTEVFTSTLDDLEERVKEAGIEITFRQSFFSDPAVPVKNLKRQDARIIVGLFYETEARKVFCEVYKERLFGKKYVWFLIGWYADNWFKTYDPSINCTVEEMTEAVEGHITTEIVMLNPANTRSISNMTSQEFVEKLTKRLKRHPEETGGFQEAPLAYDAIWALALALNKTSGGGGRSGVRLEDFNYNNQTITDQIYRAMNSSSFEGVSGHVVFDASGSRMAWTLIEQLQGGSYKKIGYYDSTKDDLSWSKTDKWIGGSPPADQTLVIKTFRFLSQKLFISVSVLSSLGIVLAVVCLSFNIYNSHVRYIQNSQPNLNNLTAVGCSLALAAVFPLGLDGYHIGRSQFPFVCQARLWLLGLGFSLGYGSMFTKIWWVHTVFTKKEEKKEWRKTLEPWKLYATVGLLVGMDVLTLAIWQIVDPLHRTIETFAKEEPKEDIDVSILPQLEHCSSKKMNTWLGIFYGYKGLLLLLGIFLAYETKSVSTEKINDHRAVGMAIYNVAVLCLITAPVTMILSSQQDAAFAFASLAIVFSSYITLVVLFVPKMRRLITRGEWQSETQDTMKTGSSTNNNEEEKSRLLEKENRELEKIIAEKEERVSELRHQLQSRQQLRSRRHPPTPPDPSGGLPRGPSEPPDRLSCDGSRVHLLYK
GABAB receptor (heterodimer of GABAB1 and GABAB2), untagged and SNAP-tagged subunits in three combinations, sequence (O88871 41-940): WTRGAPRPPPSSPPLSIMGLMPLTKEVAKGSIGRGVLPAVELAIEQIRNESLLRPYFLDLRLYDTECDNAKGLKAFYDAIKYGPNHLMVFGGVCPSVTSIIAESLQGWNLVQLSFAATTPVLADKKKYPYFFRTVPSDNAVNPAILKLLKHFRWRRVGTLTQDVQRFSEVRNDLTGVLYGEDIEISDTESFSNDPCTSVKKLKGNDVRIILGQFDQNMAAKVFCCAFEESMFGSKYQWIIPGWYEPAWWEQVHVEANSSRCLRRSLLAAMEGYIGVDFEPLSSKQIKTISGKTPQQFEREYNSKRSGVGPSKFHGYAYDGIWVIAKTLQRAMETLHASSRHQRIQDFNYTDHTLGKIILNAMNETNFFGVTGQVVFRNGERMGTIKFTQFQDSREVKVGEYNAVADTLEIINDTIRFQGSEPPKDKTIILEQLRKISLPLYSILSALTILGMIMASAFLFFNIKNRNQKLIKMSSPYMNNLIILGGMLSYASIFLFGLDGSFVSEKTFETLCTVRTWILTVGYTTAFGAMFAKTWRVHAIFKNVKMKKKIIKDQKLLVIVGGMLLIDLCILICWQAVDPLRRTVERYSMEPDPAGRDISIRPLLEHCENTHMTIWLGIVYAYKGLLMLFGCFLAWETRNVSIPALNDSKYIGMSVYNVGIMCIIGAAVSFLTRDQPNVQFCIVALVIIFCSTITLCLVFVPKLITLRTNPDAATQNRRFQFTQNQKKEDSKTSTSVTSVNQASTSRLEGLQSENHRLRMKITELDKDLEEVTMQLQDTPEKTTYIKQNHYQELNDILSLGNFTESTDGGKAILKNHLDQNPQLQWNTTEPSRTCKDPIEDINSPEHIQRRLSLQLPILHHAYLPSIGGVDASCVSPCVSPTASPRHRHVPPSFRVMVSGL

## GABAB receptor (heterodimer of GABAB1 and GABAB2), untagged and SNAP-tagged subunits in three combinations (from UniProt Q9Z0U4 20-960; O88871 41-940) (complex)
[1]
  stoichiometry N (per diffusing complex): 2 to 8

## mGlu2 mutated to be locked in the inactive conformation (HA-ST-mGlu2-515NGlyc-L698C-L729C-F756D), cross-linked with CuP (from UniProt P31421 19-872) (receptor)
[2]
  stoichiometry N (subunits/complex): 2.3
